From patent publication US20210196796A1 (SYNTHEKINE, published 2021)

T1: orthogonal hCD122 receptor (hoRb), hCD122 with H133D and Y134F (human, UniProt P14784 27-550)
T1 sequence: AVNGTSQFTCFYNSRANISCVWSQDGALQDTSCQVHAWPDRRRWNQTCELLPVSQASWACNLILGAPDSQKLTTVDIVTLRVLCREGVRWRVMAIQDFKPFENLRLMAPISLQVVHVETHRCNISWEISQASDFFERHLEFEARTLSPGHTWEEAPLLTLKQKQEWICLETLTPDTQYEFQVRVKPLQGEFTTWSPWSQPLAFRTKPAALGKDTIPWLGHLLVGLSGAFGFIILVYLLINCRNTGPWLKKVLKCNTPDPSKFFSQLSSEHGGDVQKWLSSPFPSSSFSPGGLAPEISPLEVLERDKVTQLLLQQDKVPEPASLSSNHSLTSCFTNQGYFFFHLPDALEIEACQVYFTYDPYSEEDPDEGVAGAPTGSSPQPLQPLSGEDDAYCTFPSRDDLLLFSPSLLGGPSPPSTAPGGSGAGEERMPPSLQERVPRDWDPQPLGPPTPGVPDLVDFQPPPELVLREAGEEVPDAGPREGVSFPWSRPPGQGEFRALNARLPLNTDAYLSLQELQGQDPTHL


Key:
[1] = biological target: T1, orthogonal hCD122 receptor (hoRb), …; test: cell-based or functional assay
[2] = biological target: T1, orthogonal hCD122 receptor (hoRb), …; test: cell-based or functional assay; remark: listed apart in the source
Throughout, for Relative Proliferation Fold Change 3F8 1:10: reference of the scale not given here.
Throughout, for Relative Proliferation Fold Change 3F8 1:2: reference of the scale not given here.
Throughout, for Relative Proliferation Fold Change 3F8 1:50: reference of the scale not given here.
Throughout, for Relative Proliferation Fold Change NKL 1:10: reference of the scale not given here.
Throughout, for Relative Proliferation Fold Change NKL 1:2: reference of the scale not given here.
Throughout, for Relative Proliferation Fold Change NKL 1:50: reference of the scale not given here.

NKL Ortho Proliferation Signal 1:2 [1]	NKL Ortho Proliferation Signal 1:10 [1]	NKL Ortho Proliferation Signal 1:50 [1]	Relative Proliferation Fold Change NKL 1:2 [1] [fold]	Relative Proliferation Fold Change NKL 1:10 [1] [fold]	Relative Proliferation Fold Change NKL 1:50 [1] [fold]	3F8 Ortho Proliferation Signal 1:2 [2] [cts/min]	3F8 Ortho Proliferation Signal 1:10 [2] [cts/min]	3F8 Ortho Proliferation Signal 1:50 [2] [cts/min]	Relative Proliferation Fold Change 3F8 1:2 [2] [fold]	Relative Proliferation Fold Change 3F8 1:10 [2] [fold]	Relative Proliferation Fold Change 3F8 1:50 [2] [fold]	Binder
54600	65700	35000	4.07	4.17	2.44	36400	32500	27100	18.7	56.7	33.8	Q74S, SQVLKA (ligand) APTSSSTKKTQLQLSQLLVLLKAILNGINNYKNPKLTRMLTFKFYMPKKATELKHLQCLEEELKPLEEVLNLASSKNFHLRPRDLISNINVIVLELKGSETTFMCEYADETATIVEFLNRWITFCQSIISTLT
55100	47400	22600	4.23	3.18	1.67	34200	36400	21900	116	96.8	17.5	Q74N, SQVLKA (ligand) APTSSSTKKTQLQLSQLLVLLKAILNGINNYKNPKLTRMLTFKFYMPKKATELKHLQCLEEELKPLEEVLNLANSKNFHLRPRDLISNINVIVLELKGSETTFMCEYADETATIVEFLNRWITFCQSIISTLT
61200	67800	33200	4.24	4.14	2.27	37200	26800	25800	1.01	2.8	16.8	L80F, SQVLKA (ligand) APTSSSTKKTQLQLSQLLVLLKAILNGINNYKNPKLTRMLTFKFYMPKKATELKHLQCLEEELKPLEEVLNLAQSKNFHFRPRDLISNINVIVLELKGSETTFMCEYADETATIVEFLNRWITFCQSIISTLT

Further lines, the binder ahead of its results:

Binder	NKL Ortho Proliferation Signal 1:2 [1]	NKL Ortho Proliferation Signal 1:10 [1]	NKL Ortho Proliferation Signal 1:50 [1]	Relative Proliferation Fold Change NKL 1:2 [1] [fold]	Relative Proliferation Fold Change NKL 1:10 [1] [fold]	Relative Proliferation Fold Change NKL 1:50 [1] [fold]	3F8 Ortho Proliferation Signal 1:2 [2] [cts/min]	3F8 Ortho Proliferation Signal 1:10 [2] [cts/min]	3F8 Ortho Proliferation Signal 1:50 [2] [cts/min]	Relative Proliferation Fold Change 3F8 1:2 [2] [fold]	Relative Proliferation Fold Change 3F8 1:10 [2] [fold]	Relative Proliferation Fold Change 3F8 1:50 [2] [fold]
H55Y, SQVLKA (ligand) APTSSSTKKTQLQLSQLLVLLKAILNGINNYKNPKLTRMLTFKFYMPKKATELKYLQCLEEELKPLEEVLNLAQSKNFHLRPRDLISNINVIVLELKGSETTFMCEYADETATIVEFLNRWITFCQSIISTLT	47100	37100	17800	3.72	2.34	1.22	24600	29500	16500	63	23.5	16.7
Q74H, SQVLKA (ligand) APTSSSTKKTQLQLSQLLVLLKAILNGINNYKNPKLTRMLTFKFYMPKKATELKHLQCLEEELKPLEEVLNLAHSKNFHLRPRDLISNINVIVLELKGSETTFMCEYADETATIVEFLNRWITFCQSIISTLT	58300	50300	23000	3.89	3.18	1.6	35100	28700	21200	64.7	42.9	53
